± gives the uncertainty stated by the source.

This series in a line: amyloid nucleation score (Sup35N fusion, yeast selection) (log enrichment); library NNK3; higher = more nucleation; inactive = no reads after selection. Put shortly: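 Libraries of peptides of 20 random codons fused to Sup35N were expressed in psi-negative yeast and induced 24 hours with 100 μM copper sulfate. Selection was 7 days at 30°C on medium lacking adenine and uracil, and plasmid inserts were Illumina-sequenced before and after selection. Nucleation score is the DiMSum log enrichment of output over input reads, centred on the mode score of non-aggregating sequences, and sequences with under 100 input reads were left out.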
As to KWVFWSIYVPFTCKFNMVNR, the amyloid nucleation score result was “inactive”.

Regarding HQARIYVSYYPVLSFDPFRK, the amyloid nucleation score was determined as 2.06 ± 0.074.

For MYYSSYR, the amyloid nucleation score result is “inactive”.

With IMKTYLLMLSFFRNPPMVVL, the amyloid nucleation score entry is “inactive”.

On to LSCWNIRGWLRWS, for which the amyloid nucleation score result was “inactive”.

For SYYYPNIVRIEHPHCTRHHA, the amyloid nucleation score result is “inactive”.

IECRARRSVCLL: the amyloid nucleation score entry was “inactive”.

Regarding VGLNQSLNRWPTSSSQHMGG, the amyloid nucleation score entry was “inactive”.

As for ICDLSREYSNHGFVLMDEIR, the amyloid nucleation score entry is “inactive”.

As to GHNRYIDLSIEIRAL, the amyloid nucleation score was -0.61 ± 1.1.

For the substance RGPSAPNFWE, the amyloid nucleation score entry is “inactive”.

Consider CRTTRLTLNGVIVGNAGFSI, for which the amyloid nucleation score entry was “inactive”.

As for PPCYKI, the amyloid nucleation score entry was “inactive”.

In the case of GFYVRRGCLWGGYNHVFAIF, the amyloid nucleation score entry was “inactive”.

With TNTNFSVRFRTTKWMAKRRA, the amyloid nucleation score came out at 1.4 ± 0.11.

As for YVYRSRFKQDLRGFLFNFTY, the amyloid nucleation score entry is “inactive”.

As to SVSLLAFRDFALPDHTKHMT, the amyloid nucleation score entry was “inactive”.

With SCYNYCRCVCPNVEASHTSL, the amyloid nucleation score is -0.664 ± 1.1.

Consider GTRMNGSGFVKRAL, for which the amyloid nucleation score entry was “inactive”.

As to EKFTMLARSKAAICLVDKSC, the amyloid nucleation score is -0.463 ± 0.93.

For the substance KLPSEISKNYT, the amyloid nucleation score result is “inactive”.

As for LKPLGDSADGRWQLLWNSAD, the amyloid nucleation score result was “inactive”.

As for ACSLSWCHTGCY, the amyloid nucleation score entry was “inactive”.

For the substance HTFDDSTCSYTWVYFHIWCI, the amyloid nucleation score result is “inactive”.

Consider RHGKIAAS, for which the amyloid nucleation score entry was “inactive”.

SVHWSINWTGLERVSRTQRL: the amyloid nucleation score was determined as 0.523 ± 0.24.

For ERQNMSYMGHKKEYLNHYFW, the amyloid nucleation score entry was “inactive”.

Take DKTCKVDWMSFTSHDF: the amyloid nucleation score entry is “inactive”.

For the substance FHVYCVWVRTLSCWRENNVK, the amyloid nucleation score is 1.5 ± 0.14.

Consider TCVKMDRRSLAINALLSYYR, for which the amyloid nucleation score entry is “inactive”.

Regarding NCRVMEISIGKAKQSWNFVM, the amyloid nucleation score result was “inactive”.

Consider NMRGEFQTLANWVWLLQRVL, for which the amyloid nucleation score result is “inactive”.

Turning to FLHVRLRHSWVV, the amyloid nucleation score entry is “inactive”.

Take FRAWYDTAMSQSLFLCRKGA: the amyloid nucleation score entry was “inactive”.

SLIGSRGPLNSGEVMMMLFK: the amyloid nucleation score entry was “inactive”.

Regarding ECYLEIASDSYINLKFARIE, the amyloid nucleation score came out at 0.019 ± 0.73.

Take GKWGWLIASWREFTS: the amyloid nucleation score entry is “inactive”.

Take SATFRSSVTLSRHPVNNLTP: the amyloid nucleation score amounted to 1.35 ± 0.082.

For GFAGMLYDLLPFGNWSLPSH, the amyloid nucleation score was -0.127 ± 0.75.

For VFIKLPVRSS, the amyloid nucleation score is -0.192 ± 0.96.

For the substance TYIPFIIYLIGCVLVYVYVL, the amyloid nucleation score entry was “inactive”.

In the case of TFFWLLCN, the amyloid nucleation score entry is “inactive”.

As for FLYFTHARFHR, the amyloid nucleation score is 1.79 ± 0.094.

Consider YLICDFTFYVRGGGGMSQMT, for which the amyloid nucleation score came out at 0.655 ± 0.28.

Substance VFKFALFTGTLLWLDHCVVS registered an amyloid nucleation score of 1.51 ± 0.14.

GWHNGDKSYIFVYIRFGPMG gave an amyloid nucleation score of 0.955 ± 0.16.

As for QLSVYIYLLIQLVISRKRNT, the amyloid nucleation score result was “inactive”.

For GVMDDSDIL, the amyloid nucleation score was -0.492 ± 0.84.

Regarding LLVESMDGGRPILQDGLFKY, the amyloid nucleation score entry was “inactive”.

Turning to ATAVMVRILQRACTFLDAKS, the amyloid nucleation score result was “inactive”.

Turning to HYNVPL, the amyloid nucleation score entry was “inactive”.

Turning to FWMIVYMNNSLI, the amyloid nucleation score entry is “inactive”.

Regarding CVDCRGESAHLLIARWFMRR, the amyloid nucleation score turned out to be 0.387 ± 0.38.

For RFNCHRMCEHGDTLDMSYN, the amyloid nucleation score result was “inactive”.

With VCHKCCDRIQSLVGVRGHQE, the amyloid nucleation score entry is “inactive”.

SWSFDWFQSIVVGYLTCALA: the amyloid nucleation score result was “inactive”.

For the substance TFCLSYFHLL, the amyloid nucleation score result was “inactive”.

Take IASEFVRGKHSHYM: the amyloid nucleation score result was “inactive”.

As for LLVTDYGFELTVQLWNKRSL, the amyloid nucleation score was -0.155 ± 0.33.

With VNKVDGLETMQYIFTCGSWM, the amyloid nucleation score is 0.098 ± 0.23.

Take QDLGECN: the amyloid nucleation score entry is “inactive”.

On to KILQDKKMFRGFRNGRRAGI, for which the amyloid nucleation score entry was “inactive”.

For the substance PRVFGRVTSRMFLDFVLNF, the amyloid nucleation score was 0.982 ± 0.14.

On to LSSDNCTFPFHRLGGYKQSY, for which the amyloid nucleation score entry is “inactive”.

As to ILQMVDVGMEICYTPVLAYF, the amyloid nucleation score entry was “inactive”.

Take TVVRNGIKTVYGLVDCVDS: the amyloid nucleation score result is “inactive”.

Take HICIQDCVD: the amyloid nucleation score entry is “inactive”.

On to CIIFTRMATTGG, for which the amyloid nucleation score result is “inactive”.

Regarding WGICFVITYNIKIKYDHLMS, the amyloid nucleation score is 1.18 ± 0.081.

As to IGITHFRTCDGHNVRGRNRW, the amyloid nucleation score result was “inactive”.

On to KVMNLVRFRTDFLESNMRWC, for which the amyloid nucleation score turned out to be 0.751 ± 0.17.

For the substance FLQSGN, the amyloid nucleation score entry was “inactive”.

Take LTYHWNVVQLTLGNCFSGWG: the amyloid nucleation score was 2.55 ± 0.059.

Regarding YWVSSYCIPMCGYQVWCVWG, the amyloid nucleation score entry is “inactive”.

For the substance TDNAVMGSHCI, the amyloid nucleation score result was “inactive”.

With LIALNYVWYTAQ, the amyloid nucleation score result is “inactive”.

In turn, ISISLLFGMTFTSFSRLIHF showed an amyloid nucleation score of 1.42 ± 0.11.

For TLWYSFQKSSSNLTRSLGLK, the amyloid nucleation score entry is “inactive”.

On to AWLNFCPSHVLLLFESYLNV, for which the amyloid nucleation score result is “inactive”.

The substance GLFLRMLLRADPAKSWENRI returned an amyloid nucleation score of 0.238 ± 0.27.

In the case of FFLMKDSLLSSVERSIGVIG, the amyloid nucleation score result is “inactive”.

On to MPYVSKVYHYRYT, for which the amyloid nucleation score result is “inactive”.

GCNACVTSTCIRVVCGNLKC gave an amyloid nucleation score of 0.715 ± 0.3.

GEYMRLYVSVTGYTVYYSVR: the amyloid nucleation score came out at 0.882 ± 0.2.

For DSSNGFICR, the amyloid nucleation score result is “inactive”.

With SIDIVVVWTGAIQDFRVLCL, the amyloid nucleation score was -0.594 ± 1.1.

As to LYRRVHVMGPVSHLDKLERC, the amyloid nucleation score entry is “inactive”.

Consider QQCVTLQIYTMFKLRDYPA, for which the amyloid nucleation score came out at 0.503 ± 0.24.

Take VHYGNGLRWLGSLVYMGGCI: the amyloid nucleation score result was “inactive”.

NKHMGKQLAIAMAVRCAYSG yielded an amyloid nucleation score of 0.326 ± 0.33.

Turning to TCLQVSTFFVQASKSLYLPI, the amyloid nucleation score is 0.953 ± 0.11.

Take YRYVNN: the amyloid nucleation score entry was “inactive”.

With VNSLATRNFIGTLCVVSHKR, the amyloid nucleation score result is “inactive”.

For LNEVTVLTIMMCLRS, the amyloid nucleation score stood at 0.971 ± 0.16.

For the substance YEHRCCHSNIDIFGLQSRNV, the amyloid nucleation score result is “inactive”.

As for RDCICSRYIYGLRLSVLIWN, the amyloid nucleation score is -0.44 ± 0.66.

TNVSKLLIMSFVCSIHRSHG: the amyloid nucleation score turned out to be 0.816 ± 0.18.

As to VTVSSWASYIIVNGKWRIKC, the amyloid nucleation score result is “inactive”.

As to SLISSALDIISDRYGLHVNN, the amyloid nucleation score result is “inactive”.

In turn, VLKESMLGISLLMGTLRW yielded an amyloid nucleation score of 0.2 ± 0.56.

Consider MEGDLSVADSYGDQ, for which the amyloid nucleation score result is “inactive”.

Take PVEWP: the amyloid nucleation score was -0.114 ± 0.78.

As for YMACGHVAGPVH, the amyloid nucleation score entry is “inactive”.

Consider LFTLKLTVSKMKLWLLYGCS, for which the amyloid nucleation score entry is “inactive”.

As for LYRWHNLFGYTNVSSIQKYG, the amyloid nucleation score result was “inactive”.

Turning to RAVRARFSKTTVFDWYAISG, the amyloid nucleation score result is “inactive”.

In the case of AIYVFIRLLYVNIHDTTPVR, the amyloid nucleation score entry was “inactive”.

As for IGMYNEGFGMVLMTCPRLFF, the amyloid nucleation score was found to be 2.09 ± 0.077.

For VVVIHE, the amyloid nucleation score result is “inactive”.

As to RVIYG, the amyloid nucleation score result is “inactive”.

Regarding YRYVCWFTTILTYTNGRFSS, the amyloid nucleation score result is “inactive”.

As to KVSMPISHTQSLPVVTARCH, the amyloid nucleation score result is “inactive”.

As for RFSRTDGRLWSCKTCQ, the amyloid nucleation score entry is “inactive”.

For the substance VYDLVT, the amyloid nucleation score result is “inactive”.

As to KGYSKCEDPMLECYYCTPVN, the amyloid nucleation score entry was “inactive”.

Turning to KKASVLSHVTYNRMITAWNI, the amyloid nucleation score result is “inactive”.

Take SLLTFCFHIESLWMWYWMCH: the amyloid nucleation score entry is “inactive”.

Consider QATFGWTANSSLFFSRDFLA, for which the amyloid nucleation score result is “inactive”.

With PTSSKLKFAFINYVLTVSTS, the amyloid nucleation score entry was “inactive”.

With VLVLS, the amyloid nucleation score entry is “inactive”.

With NVDVTELCTAVTYNDLHGFR, the amyloid nucleation score result is “inactive”.

In the case of EFTFWWCCDRYSRAELTCRR, the amyloid nucleation score entry was “inactive”.

With SKSLMMDLCTYCHYLNVYRE, the amyloid nucleation score result is “inactive”.

For the substance NYFCDIFNLSVNSILNYY, the amyloid nucleation score is 0.68 ± 0.19.

With RREYVVGNSFFYNY, the amyloid nucleation score was determined as 1.19 ± 0.093.

The substance LDQPGPDNLNVVNKLNFDWH registered an amyloid nucleation score of 0.419 ± 0.26.

For the substance LGSFNDVWIVCADWFAFLKV, the amyloid nucleation score result is “inactive”.

In the case of RSKWRCRTLVDWRLQV, the amyloid nucleation score entry was “inactive”.

For VVERKGRSKKLVFVCLLILW, the amyloid nucleation score result was “inactive”.

As to GQDRYLLAAYK, the amyloid nucleation score entry was “inactive”.

Take KAGVRKRKAER: the amyloid nucleation score entry is “inactive”.

In the case of ALFYHFL, the amyloid nucleation score entry is “inactive”.
